Where no end group is shown, it is not given here.
Target: Cdc42 (Homo sapiens, UniProt P60953)
Assay: fluorescence intensity titration

Cdc42, sequence (P60953 1-188): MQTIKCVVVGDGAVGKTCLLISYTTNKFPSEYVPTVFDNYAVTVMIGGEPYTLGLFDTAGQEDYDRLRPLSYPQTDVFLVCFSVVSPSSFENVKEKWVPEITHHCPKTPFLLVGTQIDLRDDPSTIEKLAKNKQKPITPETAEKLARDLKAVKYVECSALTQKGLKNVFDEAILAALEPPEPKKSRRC

B1: WASP CBD (Cdc42 binding domain) (protein)
chain: KKKISKADIGAPSGFKHVSHVGWDPQNGFDVNNLDPDLRSLFSRAGISEAQLTDAETSK
modifications: also: MBP fusion, mero87 dye label, site not given here
Work on B1 yielded a Kd of 186 nM.

B2: WASP CBD (Cdc42 binding domain) (protein)
chain: KKKISKADIGAPSGFKHVSHVGWDPQNGFDVNNLDPDLRSLFSRAGISEAQLTDAETSK
modifications: also: MBP fusion, mero61 dye label, site not given here
B2 was tested, and the Kd was 144 nM.

— paper PMC3667669 (2014)
